# According to PMC12667445, “Targeting RBM10‐Repressed RORB Activity in Liquid Condensates Inhibits Lysosomal Biogenesis and Neuroblastoma Progression via Affecting NF‐κB Signaling” (Advanced Science, 2025):
# B1: recombinant full‐length GST‐tagged RORB (natural protein, UniProt Q92753-1 1-459, looked up)
# chain: MRAQIEVIPCKICGDKSSGIHYGVITCEGCKGFFRRSQQNNASYSCPRQRNCLIDRTNRNRCQHCRLQKCLALGMSRDAVKFGRMSKKQRDSLYAEVQKHQQRLQEQRQQQSGEAEALARVYSSSISNGLSNLNNETSGTYANGHVIDLPKSEGYYNVDSGQPSPDQSGLDMTGIKQIKQEPIYDLTSVPNLFTYSSFNNGQLAPGITMTEIDRIAQNIIKSHLETCQYTMEELHQLAWQTHTYEEIKAYQSKSREALWQQCAIQITHAIQYVVEFAKRITGFMELCQNDQILLLKSGCLEVVLVRMCRAFNPLNNTVLFEGKYGGMQMFKALGSDDLVNEAFDFAKNLCSLQLTEEEIALFSSAVLISPDRAWLIEPRKVQKLQEKIYFALQHVIQKNHLDDETLAKLIAKIPTITAVCNLHGEKLQVFKQSHPEIVNTLFPPLYKELFNPDCATGCK
# notes: The construct and its expression host are not described in the main text; They may be in the Supporting Information; source: recombinant, purified
# Molecular target: T1, recombinant full‐length MBP‐tagged RBM10 (human, UniProt P98175 1-930)
# T1 construct: RBM10 (variant 1 is the form found in NB cells), full length; Printed domain limits: RRM1 129-209, ZF1 212-242, RRM2 300-384, ZF2 759-784, G patch 858-904; The construct and its expression host are not described in the main text; They may be in the Supporting Information; source: recombinant, purified
# Assay: co-IP; purified recombinant GST-tagged RORB and MBP-tagged RBM10, full-length or truncated; western blot
# Conditions: both partners purified
# T1 sequence (P98175 whole entry, the tested form may be a part): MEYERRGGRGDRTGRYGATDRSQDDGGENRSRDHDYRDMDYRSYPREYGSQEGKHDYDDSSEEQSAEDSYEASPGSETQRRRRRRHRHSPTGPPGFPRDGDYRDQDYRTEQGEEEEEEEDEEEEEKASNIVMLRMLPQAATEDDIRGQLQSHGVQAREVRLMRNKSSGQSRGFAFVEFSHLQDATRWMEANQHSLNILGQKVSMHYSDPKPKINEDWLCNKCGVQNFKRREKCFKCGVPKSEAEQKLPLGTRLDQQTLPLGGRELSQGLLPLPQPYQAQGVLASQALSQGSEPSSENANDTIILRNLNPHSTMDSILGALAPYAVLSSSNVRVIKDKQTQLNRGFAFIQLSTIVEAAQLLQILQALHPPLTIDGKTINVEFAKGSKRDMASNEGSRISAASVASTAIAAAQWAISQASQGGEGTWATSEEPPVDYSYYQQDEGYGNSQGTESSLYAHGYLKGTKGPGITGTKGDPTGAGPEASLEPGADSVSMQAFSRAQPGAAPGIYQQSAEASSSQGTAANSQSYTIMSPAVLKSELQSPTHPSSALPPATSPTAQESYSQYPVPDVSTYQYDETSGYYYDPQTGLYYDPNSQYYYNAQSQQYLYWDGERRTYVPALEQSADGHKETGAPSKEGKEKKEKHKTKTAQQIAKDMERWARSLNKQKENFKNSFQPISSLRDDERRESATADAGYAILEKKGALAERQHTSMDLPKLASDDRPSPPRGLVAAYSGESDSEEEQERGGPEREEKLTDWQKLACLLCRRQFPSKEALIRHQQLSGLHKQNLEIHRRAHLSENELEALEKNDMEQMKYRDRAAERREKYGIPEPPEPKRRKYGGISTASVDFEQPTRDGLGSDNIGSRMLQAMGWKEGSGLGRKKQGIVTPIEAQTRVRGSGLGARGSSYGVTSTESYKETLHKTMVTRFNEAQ
binder,measurement,value
B1,binding result,binds
